Article PMC3199381 (The EMBO Journal, 2011)
Where two headings read alike, the source gives them in different places. Blank lines part the entries; values can stand above or below the molecule they belong to.

Tests used:
[1] = target: T1, MglA·MglB^A5 complex (Thermus thermophilus, UniProt Q5SJ82); experiment: X-ray crystal structure, […] Å; assay type: binding; details: with AlF4- as transition state mimic
T1 sequence (Q5SJ82 1-196): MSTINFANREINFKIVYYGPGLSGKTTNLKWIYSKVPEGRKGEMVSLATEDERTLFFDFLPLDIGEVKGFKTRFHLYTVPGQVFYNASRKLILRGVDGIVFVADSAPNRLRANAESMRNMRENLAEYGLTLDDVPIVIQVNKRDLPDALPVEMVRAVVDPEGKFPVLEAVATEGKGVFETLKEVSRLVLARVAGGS
T1 sequence (Q5SJ83 6-139 E14A/R15A/G65S/R124A/E127A/R131A partner): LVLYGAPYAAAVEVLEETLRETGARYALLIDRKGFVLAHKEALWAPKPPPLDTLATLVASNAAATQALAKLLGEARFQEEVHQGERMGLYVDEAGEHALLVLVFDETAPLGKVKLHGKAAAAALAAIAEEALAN

[2] = target: T2, T.t.MglA (Thermus thermophilus, UniProt Q5SJ82); experiment: X-ray crystal structure, […] Å; assay type: binding; details: no Mg2+ detected at the nucleotide
T2 sequence (Q5SJ82 1-196): T1 sequence (Q5SJ82 1-196)

[3] = target: MglB from Thermus thermophilus HB8, residues 6-139 (Thermus thermophilus HB8); experiment: crystal structure
[4] = target: MglB from Thermus thermophilus HB8, residues 6-139 (Thermus thermophilus HB8); experiment: crystal structure; remark: listed apart in the source
[5] = target: MglA from Thermus thermophilus HB8, wild type (Thermus thermophilus HB8); experiment: SEC
[6] = target: MglB from Thermus thermophilus HB8, residues 6-139 (Thermus thermophilus HB8); experiment: SEC
[7] = target: MglA from Thermus thermophilus HB8, wild type (Thermus thermophilus HB8); experiment: fluorescence polarisation
[8] = target: MglA from Thermus thermophilus HB8, wild type (Thermus thermophilus HB8); experiment: fluorescence polarisation; remark: listed apart in the source
[9] = target: MglA from Thermus thermophilus HB8, wild type (Thermus thermophilus HB8); experiment: crystal structure

- X-ray crystal structure, 2.2 Å [1]: 3T12 (MglA·GDP·AlF4-·MglB^A5)
- X-ray crystal structure, 1.9 Å [2]: 3T1O (MglA·GDP)
Molecule: Nc1nc2c(ncn2[C@@H]2O[C@H](COP(=O)(O)OP(=O)(O)O)[C@@H](O)[C@H]2O)c(=O)[nH]1 [GDP]

- stoichiometry N [3]: 4
- stoichiometry N [4]: 2
- stoichiometry N (MglB per MglA) [5]: 2
- stoichiometry N [6]: 2
- Kd [7]: 2 µM
- Kd [8]: 3.2 µM
- stoichiometry N (MglB monomers per MglA) [8]: 2
Molecule: MglB from Thermus thermophilus HB8, residues 6-139 (domain or fragment)

- stoichiometry N (MglB per MglA) [9]: 2
Molecule: MglB^A5 (E14/R15/R124/E127/R131A), residues 6-139 (domain or fragment)

- Kd [8]: 34.6 µM
Molecule: MglB^A68/72R, residues 6-139 (domain or fragment)
